Data reported in the DeepSol protein solubility set.

Experiment: soluble on expression in E. coli; label from the status in PepcDB or PDB records

MGHHHHHHSHMNGEAICSALPTIPYHKLADLRYLSRGASGTVSSARHADWRVQVAVKHLHIHTPLLDSERKDVLREAEILHKARFSYILPILGICNEPEFLGIVTEYMPNGSLNELLHRKTEYPDVAWPLRFRILHEIALGVNYLHNMTPPLLHHDLKTQNILLDNEFHVKIADFGLSKWRMMSLSQS
soluble on expression in E. coli: not soluble

EPLRVLELYSGVGGMHHALRESCIPAQVVAAIDVNTVANEVYKYNFPHTQLLAKTIEGITLEEFDRLSFDMILMSPPCQPFTRIGRQGDMTDSRTNSFLHILDILPRLQKLPKYILLENVKGFEVSSTRDLLIQTIENCGFQYQEFLLSPTSLGIPNSRLRYFLIAKLQSEPLPFQAPGQVLMEFPKIEIHRKNQQDSDLSVKMLKDFLEDDTDVNQYLLPPKSLLRYALLLDIVQPTCRRSVCFTKGYGSYIEGTGSVLQTAEDVQVENIYKSLTNLSQEEQITKLLILKLRYFTPKEIANLLGFPPEFGFPEKITVKQRYRLLGNSLNVHVVAKLIKILYE
soluble on expression in E. coli: soluble

MTYLETAAQFYSEVAQTPQVGLCCVQSTPLQLPGLKIPLPMQEMNYGCGTTVHPTELGKQPTVLYVGVGGGLEALQFAYFSRRPGAVIAVEPVAAMREAAARNLEMALTDNPWFDSSFVEIREGDAFNLPVADGSVDIVAQNCLFNIFEPEDLTRALKEAYRVLKPGGRLQMSDPIATSPVPAHLQQDERLRAMCLSGALTYEEYTQRIIDAGFGQIEIRARRPYRLLDSQTYNLETHLLLESLDSVSFKVPMPEDGACIFTGRTAIYAGCDAFFDDKAGHILQRGIPATVCDKTAAKLATVKPKEVIITDSTWHYNGGGCCLEHHHHHH
soluble on expression in E. coli: soluble

MKSMPTISRIQRIKEYLSKRKLSQRRKVGVLVDGPNMLRKEFNINLKEIREILSEYGDIKIAKVFLNQYATEKLVEAIENQGFEPIVTSGDVDVRMAVEAMELIYNDSIDAVALVTRDADFKAVLMKAMEMGKETIIIGAEPGFSTALKNSADIAIVLNEDEEKEKGDADEEEIIEV
soluble on expression in E. coli: not soluble

MAHHHHHHMWDPFRDIDRIFNRVLPLTGAGSFSSFSRGSWSPAMDLVEKPEGYKLLVDLPGMNREDIQVGIEDNRLCISGNRKSLLKDDEQHLAVFLERGYGRFERCMNLPSPIVEESVKARLRDSVLVVELKKNNSPASSAATSVTIQ
soluble on expression in E. coli: soluble

MGSDKIHHHHHHMNSINKNQPEKNHEDLKNKDSIDKIIELASDQTCFLCTTQGAKGNARPMAVQKVDKQGNIWFLSASDSNQNKEIQENSSVNLYFKGNQHSDFMHLYGEATVLRDETIIKELWNPVLKTWFTEGENDPRITIIKFTTKEGYYWDTKHGNFIAGIKMLIGAATGQTLDDSIEGSLQNQPVHNTHISHG
soluble on expression in E. coli: not soluble

MAHHHHHHMSYQPPYGYASSPQASPYFPGGNYYSTPPPIPQQQPFQTSPLFGTEQEAVQWFRAVSSSSGGYISVPQLQSALSQGGMNFSYATTERLISMFDANLDGAIDFTEFQELHRYILSMRGGFSQRDTSRDGLLEGNEVRMALSANFYQVDDNTFQTLMRKFDRRKRGSLGFDDYIELSLFVGKANDAFKAQSQGKASATFSFSSFLSAGASLL
soluble on expression in E. coli: soluble

MANANPFARIADRYDGTPPRLRPPLVTQAVGEVIPFVDTAGCFVEAYTPRRVAVRLDNEERLHNHLGGLHAAALALLAETATGLVVALNVPDGSSPLLRTMDISFENFARDAVQAEATLTDAETSQVRSRPLGQIAVDVALTAPDDDTTLVAGTLTWAWVPEARLVDEGERLEHHHHHH
soluble on expression in E. coli: not soluble

MSLLLRMMGWKALVPSANPLQSVICVAPHTSNYDFLLGKLYYWSIGRKAGFLMKKEWFFFPLGPIFRAMGGIPIDRSKRGSTVEQVREFFQRHAVFNVAITPEGTRDYSPQWKTGFYRIAVGAGVPIQLAVIDYSYKEMSVFELFTPTGNEEADIAYIRSRYRASQARHPRNFAESEIEGHHHHHH
soluble on expression in E. coli: soluble

MSLSTYILNTNDKARERLSLQHQLYAKSSLDLLSEVGPSAAMTALEIGCGSGDMTLELAKLIGREGSLLTIDLSQDQLDHTQQRTRTYSNIRFKVWDVNHLSDLGEKFDLIYCRMVLHHVADARSVILQMKNCLNSGGFVVCEEPSLFDSTFCSPPSPSYDQFTQWARSCFSKSNRDFQIAHRLEQEFSSCGFEIEHCSLFQPLLRTNKEKLIYSMALDDLTPQLLELGIAKREEIKQLHNELEDLAKTNSTMCWIRMHKIIAKLNEGHHHHHH
soluble on expression in E. coli: soluble

MSLTPYNVARKRGELKYLLLTESQFDGGMMLRFVLRSETKLTQLRAALPWLRAQLPQLRVITANIQPVHMAIMEGETEIYLTDQQALAERFNDVPLWIRPQSFFQTNPTVASRLYATARDWVGQLPVRHMWDLFCGVGGFGLHCATPQMQLTGIEIAPEAIACAKQSAAELGLTRLHFQALDSTQFATAQGETPDLVLVNPPRRGIGKPLCDYLAQMAPRFIIYSSCNAQTMAQDIRHLPNYRIQRVQLFDMFPHTAHYEVLALLRRSEGHHHHHH
soluble on expression in E. coli: not soluble

MMLNNFETDSIFTPEQVLENRGRVAIFIDGSNLFYAALQLGIEIDYTKLLCRLTGGSRLLRSFFYTGVDRTNEKQQGFLLWMRRNGYRVIAKDLVQLPDGSKKANLDVEIAVDMMALVDSYDTAVLVSGDGDLAYAVNSVSYRGVRVEVVSLRSMTSDSLINVSDRYIDLEAIKEDIQKTPRQSYPYRPLSGIGFLEDPRTSDGHLEIQE
soluble on expression in E. coli: not soluble

MAEKSYTRFVINGKEQELKFCLQALRLLDENGGPMQFVSQTMQGGITNFTDVVYYALIHTNEGITYEAVQKEIENMFNAEKLDLDEILKYNKAVVLNSFFFQKTVKKLLGTMTAEQQKSFENLYA
soluble on expression in E. coli: not soluble

MAHHHHHHMSFTEWPVSRVRQEFVDYFKKQGHTFVPSSPVCPHDDPTLLFINAGMNQFKALFLGTADPNTDFGRLKRAANSQMCIRAGGKHNDLEDVGRDTYHHTFFEMLGSWSFGDYFKKEAIQWAWELLTEVYKLPKDQLYVTYFEGDESNGLDPDLEAKELWGQLLPESQIVPGNAKDNFWEMGDTGPCGPCSEVHFDRIGRRNAASLVNKDDPMVVEIWNLVFMQFERRAGGFLTPLPQKHIDTGMGLERLTSILQGVKSNYDTDAWIPLFEAIQTATGYPKSYAEIRNDPDSDALVAYRVVADHIRCLTSAVGDGVMPDSVGRGFVLRRIIRRAVRYGVQFLGAKPGFFTQLVDSVCTSLGPFFPHLKEPRNIQRIKAVLADEEQSFAKTWEMGLKHFNHAVNECRANSSKVISGSEAFVLHDRYGFPVDLTCLLAEKDGMTVDLEGFNTEMKESKVSAGRVAATKTFIDAYQLEELKTRGIPQTNDAAKYVWEDYTGDVLAIFDKKNSKFISLLEPGNDLGAEGVGIILSTTNFYAESGGQVYDTGRLVAASDSVFEGRRRTTWPATWCTWATSASTLPPRSPRLRWCSCRWTTSAACRSRQTIPRPTS
soluble on expression in E. coli: not soluble

MSFTDNWSDEEFIRQMKELIGNEGDMHVTCNHSEGEQVTETHVTREKALWYRHNGDREGMLVCLNLSRVEVLNQRYFLGPCPF
soluble on expression in E. coli: not soluble

GPGSMPERCIGITTVQVGHIVGRGGSTLKGIQERTGATLCIVENGLQVKITADDAAKVAAAEAEVHKIVASQQNPDYEGPCGARLRKEAVELGQKRSKLFEEATRMREAGDHEGANKLVAMAKKAGEDMKARHREAALAIAKHNNEEKGKGPNYFDMHGLHLEEAMEMLKVRMSKLEEKPVGSTTAFEVIPGAGHHSAPGTQKLKRATLEYVQWKGYPCEEVNAGAFLVKVPGLGEGVLSKPEDGDKVPTKPKESATGVANKPKASGSAAASKSKAQSCCACM
soluble on expression in E. coli: soluble

GPGSMNQLVVFLDIDNTLYSGEEYHSLAEQIRDGLVEYVGNWLQLTPQESEAYVVHCFEKYGLTIAGLMHEQKGFDAEAATDFLYSHCDFSHLQENPRLREMLSRLRRNHHLYFFTNASRRHATTVLQALGLSSDEFRMSGFTYEDQWAQTAPVPCNKPMRNAYIAVIKVLKKWLQDAEWVTAECMVMVDDSACNLIEPLALGLNAVWVSHGHPISDVLAEKMNTGRLFCITDIIELEDIIKQITINREN
soluble on expression in E. coli: soluble

MSLYPLVLDLAATGVPVAVTCRELGFTKQGFYKWCAHPVSARDWDEAHLINAAYDVHTDDPEFGHRFIADELHAAGLQTSERRVWRLCSQQQLFSHTIKRARKHGKKPGPPVCDDLVERDFTAKAINELWLTDVTEHHTSEGKLYMCAVKDVFSNRIVGYAIDSRMKSRLAVAAIDDAVARRGGSGMIAGCVVHSDRGSQFRSRKFQQALRHYGLVGSMGRVGAAGDNAAMESFFAVLQKNVLDRGRWDTRARLRTAIVHWVERTYHRKRRQRRLGKLTPVEYELVHQKAVALAAEGHHHHHH
soluble on expression in E. coli: not soluble

MGLHVPADQHDLDFTRLGPWFSVMVNGEGQRYKVSGQVTHVKPPQSVGFTWGWHDDDDRRGAESHVMFIVEPCAKGARLILDHRELGDDEMSLRHEEGWTSSLRKLAAELEHHHHHH
soluble on expression in E. coli: not soluble

MKESLIEAKVMDYGKLKDIQKEILYYKLYVDALKKKGIKEKVDPPPTLPKSIVSSVLTGGIPRDGPLQIELVSNDVVKIKEYNTLVKIQSDSRLPLYAIVEYRDTDIRVYLAYRENPSIVGLDLGLRHLITIVAIKDTKPWKVRFFDEPKLMEKFANFLSENQGIIKLEEMKSNAKRIIYEAVSFIEDLEPKVVAMENLEYFETKTGKGLRALQNMLENEIRRRGIRYRKIDPYNTSRVCAKCGYKKGEILGSLFVCPACGYKADRDYNAAYNIALKCYYTCLEHHHHHH
soluble on expression in E. coli: not soluble

NAQARFSQNLLDQGSHPTSEKLLSVLRPASGHVADALGITEGENVIHLRTLRRVNGVALCLIDHYFADLTLWPTLQRFDSGSLHDFLREQTGIALRRSQTRISARRAQAKECQRLEIPNMSPLLCVRTLNHRDGESSPAEYSVSLTRADMIEFTMEH
soluble on expression in E. coli: soluble

MKKIIAILLLVIGSIGIGKDLDQYESKRVFDKIIEVALTGDYEKYKNDKEMTNALEELVKASEYLDVHRIFSDGNKYIVLDVEEQGNRSILTVKAVYKIYRDISEEKYRQIMEREVLELMKYDMEEIDEKTYKKNVYNIITDIAGNDFEIKEEVIKMNMIKKEKWDMEDNSDLIQRLYPAIFYMMESLNKRYFKTSEEGNI
soluble on expression in E. coli: not soluble

MTLDELNRLLDPQVLALIDAHASDDPATFAMQFHGRGDLPVRAIAEQIACRKKAAAKLPSLSRFPMLYTRL
soluble on expression in E. coli: not soluble

AHHHHHHGSINNAQPPIYEEGLEELMQELKGKYHATNDYRWAILNSDITFITVGTPSKPDGSIDLTHVKQAAKSIGKALRDKEDYHVVVVKSTVLPGTTEEVVKPILEKHSGKKAFKDFGLAMNPEFLREGVALKDFLNPDRIVLGVQDEKTKKILEELYEPINAPKLIVDIKTAEMIKYASNAFLATKISFANEIGNICKKLGIDSWKVFEGVGLDHRISPHFFKTGIGFGGSCFPKDVKALIKKAEEIGENPLILKAVIEVNERQPLKMIELLKKHIPELKGRKIGVLGLAFKPNTDDVRETRAYIIIKKLLEEGASVIAYDPKAMENFKRFYPDVSGGIEYATSPEDVLKSTEIILIVTEWPDFEELDYSGKIVIDGRRIKAAERTARIYEGVCW
soluble on expression in E. coli: soluble

MANRSHHNAGHRAMNALRKSGQKHSSESQLGSSEIGTTRHVYDVCDCLDTLAKLPDDSVQLIICDPPYNIMLADWDDHMDYIGWAKRWLAEAERVLSPTGSIAIFGGLQYQGEAGSGDLISIISHMRQNSKMLLANLIIWNYPNGMSAQRFFANRHEEIAWFAKTKKYFFDLDAVREPYDEETKAAYMKDKRLNPESVEKGRNPTNVWRMSRLNGNSLERVGHPTQKPAAVIERLVRALSHPGSTVLDFFAGSGVTARVAIQEGRNSICTDAAPVFKEYYQKQLTFLQDDGLIDKARSYEIVEGAANFGAALQRGDVAS
soluble on expression in E. coli: soluble
